The values that follow are results of earlier work, collected in patent US20160296600A1, “Relaxin Prodrugs” (ASCENDIS PHARMA RELAXIN DIVISION A/S, priority 2013, published 2016).

For this data set the following is noted: humans, intravenous administration.

“Relaxin: Mature human relaxin, hormonal peptide of approximately 6000 daltons; A-chain SEQ ID NO:1, B-chain SEQ ID NO:2”: the half-life entry is recorded as “less than 10 minutes”.
